From article PMC12416549 (2024)

T1: TNFR1 (Homo sapiens, UniProt P19438)
T1 chain: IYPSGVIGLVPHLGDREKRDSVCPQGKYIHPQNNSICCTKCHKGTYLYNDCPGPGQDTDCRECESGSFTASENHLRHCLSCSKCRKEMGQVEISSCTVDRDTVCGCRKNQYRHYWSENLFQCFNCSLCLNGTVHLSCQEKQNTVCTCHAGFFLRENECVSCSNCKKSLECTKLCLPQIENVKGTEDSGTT


Target: T1, TNFR1
Test: yeast display SC50

Row | apparent Kd (screen) [nM] | Binder
1 | 1.16 | A30T (designed binder) SMEEEVEKAAKEYEKKKKEAIEKHLEKLKTKDKEAAERFLKELEEAAKEYAKDEAKTMSEEEAKRRAKKYKEKVLLSELSEEEQKEIKEAEEKLVRTILKYVEEAAK
2 | 2.48 | A10N (designed binder) SMEEEVEKANKEYEKKKKEAIEKHLEKLKAKDKEAAERFLKELEEAAKEYAKDEAKTMSEEEAKRRAKKYKEKVLLSELSEEEQKEIKEAEEKLVRTILKYVEEAAK
3 | 20.2 | R66A (designed binder) SMEEEVEKAAKEYEKKKKEAIEKHLEKLKAKDKEAAERFLKELEEAAKEYAKDEAKTMSEEEAKRAAKKYKEKVLLSELSEEEQKEIKEAEEKLVRTILKYVEEAAK
4 | 3 | A106R (designed binder) SMEEEVEKAAKEYEKKKKEAIEKHLEKLKAKDKEAAERFLKELEEAAKEYAKDEAKTMSEEEAKRRAKKYKEKVLLSELSEEEQKEIKEAEEKLVRTILKYVEEARK
5 | 0.653 | A106P (designed binder) SMEEEVEKAAKEYEKKKKEAIEKHLEKLKAKDKEAAERFLKELEEAAKEYAKDEAKTMSEEEAKRRAKKYKEKVLLSELSEEEQKEIKEAEEKLVRTILKYVEEAPK
6 | 0.79 | K27G (designed binder) SMEEEVEKAAKEYEKKKKEAIEKHLEGLKAKDKEAAERFLKELEEAAKEYAKDEAKTMSEEEAKRRAKKYKEKVLLSELSEEEQKEIKEAEEKLVRTILKYVEEAAK
7 | 1.4 | E61N (designed binder) SMEEEVEKAAKEYEKKKKEAIEKHLEKLKAKDKEAAERFLKELEEAAKEYAKDEAKTMSENEAKRRAKKYKEKVLLSELSEEEQKEIKEAEEKLVRTILKYVEEAAK
8 | 0.49 | E104L (designed binder) SMEEEVEKAAKEYEKKKKEAIEKHLEKLKAKDKEAAERFLKELEEAAKEYAKDEAKTMSEEEAKRRAKKYKEKVLLSELSEEEQKEIKEAEEKLVRTILKYVELAAK
9 | 0.49 | V74W (designed binder) SMEEEVEKAAKEYEKKKKEAIEKHLEKLKAKDKEAAERFLKELEEAAKEYAKDEAKTMSEEEAKRRAKKYKEKWLLSELSEEEQKEIKEAEEKLVRTILKYVEEAAK
10 | 11.4 | A46P (designed binder) SMEEEVEKAAKEYEKKKKEAIEKHLEKLKAKDKEAAERFLKELEEPAKEYAKDEAKTMSEEEAKRRAKKYKEKVLLSELSEEEQKEIKEAEEKLVRTILKYVEEAAK
11 | 0.718 | E72I (designed binder) SMEEEVEKAAKEYEKKKKEAIEKHLEKLKAKDKEAAERFLKELEEAAKEYAKDEAKTMSEEEAKRRAKKYKIKVLLSELSEEEQKEIKEAEEKLVRTILKYVEEAAK
12 | 6.43 | E92Q (designed binder) SMEEEVEKAAKEYEKKKKEAIEKHLEKLKAKDKEAAERFLKELEEAAKEYAKDEAKTMSEEEAKRRAKKYKEKVLLSELSEEEQKEIKEAEQKLVRTILKYVEEAAK
13 | 0.446 | E103A (designed binder) SMEEEVEKAAKEYEKKKKEAIEKHLEKLKAKDKEAAERFLKELEEAAKEYAKDEAKTMSEEEAKRRAKKYKEKVLLSELSEEEQKEIKEAEEKLVRTILKYVAEAAK
14 | 2.73 | H24I (designed binder) SMEEEVEKAAKEYEKKKKEAIEKILEKLKAKDKEAAERFLKELEEAAKEYAKDEAKTMSEEEAKRRAKKYKEKVLLSELSEEEQKEIKEAEEKLVRTILKYVEEAAK
15 | 0.869 | K52N (designed binder) SMEEEVEKAAKEYEKKKKEAIEKHLEKLKAKDKEAAERFLKELEEAAKEYANDEAKTMSEEEAKRRAKKYKEKVLLSELSEEEQKEIKEAEEKLVRTILKYVEEAAK
16 | 1.54 | A55Q (designed binder) SMEEEVEKAAKEYEKKKKEAIEKHLEKLKAKDKEAAERFLKELEEAAKEYAKDEQKTMSEEEAKRRAKKYKEKVLLSELSEEEQKEIKEAEEKLVRTILKYVEEAAK
17 | 2.48 | Y13G (designed binder) SMEEEVEKAAKEGEKKKKEAIEKHLEKLKAKDKEAAERFLKELEEAAKEYAKDEAKTMSEEEAKRRAKKYKEKVLLSELSEEEQKEIKEAEEKLVRTILKYVEEAAK
18 | 0.446 | E104K (designed binder) SMEEEVEKAAKEYEKKKKEAIEKHLEKLKAKDKEAAERFLKELEEAAKEYAKDEAKTMSEEEAKRRAKKYKEKVLLSELSEEEQKEIKEAEEKLVRTILKYVEKAAK

Row | apparent Kd (screen) [nM] | Binder
19 | 5.84 | L43Y (designed binder) SMEEEVEKAAKEYEKKKKEAIEKHLEKLKAKDKEAAERFLKEYEEAAKEYAKDEAKTMSEEEAKRRAKKYKEKVLLSELSEEEQKEIKEAEEKLVRTILKYVEEAAK
20 | 4.83 | A63I (designed binder) SMEEEVEKAAKEYEKKKKEAIEKHLEKLKAKDKEAAERFLKELEEAAKEYAKDEAKTMSEEEIKRRAKKYKEKVLLSELSEEEQKEIKEAEEKLVRTILKYVEEAAK
21 | 0.49 | A35K (designed binder) SMEEEVEKAAKEYEKKKKEAIEKHLEKLKAKDKEKAERFLKELEEAAKEYAKDEAKTMSEEEAKRRAKKYKEKVLLSELSEEEQKEIKEAEEKLVRTILKYVEEAAK
22 | 5.31 | I98M (designed binder) SMEEEVEKAAKEYEKKKKEAIEKHLEKLKAKDKEAAERFLKELEEAAKEYAKDEAKTMSEEEAKRRAKKYKEKVLLSELSEEEQKEIKEAEEKLVRTMLKYVEEAAK
23 | 1.16 | K33G (designed binder) SMEEEVEKAAKEYEKKKKEAIEKHLEKLKAKDGEAAERFLKELEEAAKEYAKDEAKTMSEEEAKRRAKKYKEKVLLSELSEEEQKEIKEAEEKLVRTILKYVEEAAK
24 | 2.73 | R96G (designed binder) SMEEEVEKAAKEYEKKKKEAIEKHLEKLKAKDKEAAERFLKELEEAAKEYAKDEAKTMSEEEAKRRAKKYKEKVLLSELSEEEQKEIKEAEEKLVGTILKYVEEAAK
25 | 0.956 | E44A (designed binder) SMEEEVEKAAKEYEKKKKEAIEKHLEKLKAKDKEAAERFLKELAEAAKEYAKDEAKTMSEEEAKRRAKKYKEKVLLSELSEEEQKEIKEAEEKLVRTILKYVEEAAK
26 | 3.63 | K56F (designed binder) SMEEEVEKAAKEYEKKKKEAIEKHLEKLKAKDKEAAERFLKELEEAAKEYAKDEAFTMSEEEAKRRAKKYKEKVLLSELSEEEQKEIKEAEEKLVRTILKYVEEAAK
27 | 0.446 | Y101K (designed binder) SMEEEVEKAAKEYEKKKKEAIEKHLEKLKAKDKEAAERFLKELEEAAKEYAKDEAKTMSEEEAKRRAKKYKEKVLLSELSEEEQKEIKEAEEKLVRTILKKVEEAAK
28 | 0.446 | K93D (designed binder) SMEEEVEKAAKEYEKKKKEAIEKHLEKLKAKDKEAAERFLKELEEAAKEYAKDEAKTMSEEEAKRRAKKYKEKVLLSELSEEEQKEIKEAEEDLVRTILKYVEEAAK
29 | 0.446 | M2D (designed binder) SDEEEVEKAAKEYEKKKKEAIEKHLEKLKAKDKEAAERFLKELEEAAKEYAKDEAKTMSEEEAKRRAKKYKEKVLLSELSEEEQKEIKEAEEKLVRTILKYVEEAAK
30 | 1.16 | L94Q (designed binder) SMEEEVEKAAKEYEKKKKEAIEKHLEKLKAKDKEAAERFLKELEEAAKEYAKDEAKTMSEEEAKRRAKKYKEKVLLSELSEEEQKEIKEAEEKQVRTILKYVEEAAK
31 | 9.41 | E49G (designed binder) SMEEEVEKAAKEYEKKKKEAIEKHLEKLKAKDKEAAERFLKELEEAAKGYAKDEAKTMSEEEAKRRAKKYKEKVLLSELSEEEQKEIKEAEEKLVRTILKYVEEAAK
32 | 0.49 | K23C (designed binder) SMEEEVEKAAKEYEKKKKEAIECHLEKLKAKDKEAAERFLKELEEAAKEYAKDEAKTMSEEEAKRRAKKYKEKVLLSELSEEEQKEIKEAEEKLVRTILKYVEEAAK
33 | 0.49 | M2Y (designed binder) SYEEEVEKAAKEYEKKKKEAIEKHLEKLKAKDKEAAERFLKELEEAAKEYAKDEAKTMSEEEAKRRAKKYKEKVLLSELSEEEQKEIKEAEEKLVRTILKYVEEAAK
34 | 0.446 | I21K (designed binder) SMEEEVEKAAKEYEKKKKEAKEKHLEKLKAKDKEAAERFLKELEEAAKEYAKDEAKTMSEEEAKRRAKKYKEKVLLSELSEEEQKEIKEAEEKLVRTILKYVEEAAK
35 | 2.48 | K52Y (designed binder) SMEEEVEKAAKEYEKKKKEAIEKHLEKLKAKDKEAAERFLKELEEAAKEYAYDEAKTMSEEEAKRRAKKYKEKVLLSELSEEEQKEIKEAEEKLVRTILKYVEEAAK
